Measurements: a protein production outcome set (Wang et al. 2014)

Assay: label from the status in PepcDB records

Row | Sequence | protein production
1 | MKFSFHTCESNYFKDPFFYIMLSISILFSYLFSYYTILKYVSLNATAYDLGIYVSILENTMHGHVMYANPLLINSFSEHFSPFLFVIYPIYWFFPYVKTLLIMQSVMISFSGLVIYLLAREIFFINNFKKDILLEMLALFISTSYILSPYIESPLSFDFHLMPFLILFVPLSFYFFMKKYKILNLIVLILIISLHSLFVIMVFFIISYQFIFRIRNEGNLNCHKIIRTIANINISDNLKKTPKSKYVLQKIVRSKTLIKIIITLILLVGYLYFASLMKTFIASGAVALSPPSTMSTGSVSSSLAGLFTDLFTRPMLIESAFLINFPDKIIFAFYAFANTGFLVFLDPLSLLMDIPYFLYAYLSSYGPYYSLGYQYSTMIIPFIFIGALFGIRKIVQSARATDSDDVRRTIKKILVGVISIVIVSSLFELPLDPISPRNIFIESGSMANFHEFAYNNGSEIAFELQKEIGESDPYLLTINNLYPVFAKDTNAYVIAFAWNSQLRNLIYGYHIEYLVNQPDSFWSNQFNPSMNDLIDNNTFISHYGVYMESFGQDGVIVYKLNYTGLPVLMIPYSAYLPATSFYIAAGEYNYSIVNGSYVYHNTTMGTAWFGPYTTLLPGRYNITYYLESVNSEANSSILLDVTTNAGTVTLNQTVINSSELPNGDLEEVTLHLTLNETKYSVEFRGMAIDWTGTLIFKGVKYSVY | failed
2 | MCRVGLRAMVQERPVRVERRLSAILAADVAGYSRLMHNDEEATHAKLSALLTEAVQPAIAEHGGHIVKNTGDGFLAEFPSAVEAVRAAMQFQTSIHELTIGDVEDRRIAFRVGINIGDVIVEPHDIFGDGVNIAARLEGVAEPGGICISSSAYDQVQGKVGVEFGDLGEQNLKNIARPVRVYRMRPCNAATRPQASLLHRDTPQIGWFPNMFGGFPIRLWPALRARRARMALVIALLFVLSGGVAYWYMHQGEPQPLNHRLSIVVLPFTNLSNASEQEYFAEGITDDLSADLSRIEDSFVIAPSTARAYKNVDPKRVGRELGVRYILDGSLRRTDSLVRINARLIDARTGAEIWSERVDGDWSKSMQLQDIITGRLARRLDLELTNQESRDAEVMRPNNPDAVDLTMRGWAVLNQPYSREQLSQSRALFERALQIDPGFPKALVGLAETLAMEVNYRWTDAPADQLRRAESAVGQVLSKFPSDAMAHFVRGEIQRASGRNVEAAVGEYEAAIAINPSLAPAHGALGAAKIRVGRSAEAFAPLQMAIQLSPRDPLLSTWYFYIGHAHSHLGQYEGAIDWCGRSIAVQPLWIAYADLAAAHALTGHEREAYAAVAELRRLRPSYTVTEWLQDGKGWSDNAVFLAEFQRIADGLRKAGLPE | failed
3 | MDKQQRGIQVIRIWLGVTMLIHGVMKVTSLEDTLAFFASIGLPSLFVYGVAAIELIGGLFMIIGFLIPLVSVGFIAVLVGAIFSFGLASGFSGYEYELFLAITSLAILVSYADKKYLTLKLYF | failed
4 | MVAEKERVLMDLQDVFEYAFDEIFVTDDKGIVVRVNSTCERHYQIAAKELVGKHVKELQKDGIFYPSATLEVIEKKRPIELVQTTKSGEYLHVRTRPVFDDEGNLRRVISYSRDLTELYQLRQKVEEMDNQLKTYKKELRETYEHEGLIFKSIAMQKIIETIKKVSVVDSTVLVLGETGVGKSRLVRHLHEMSNRKNESFYEINCAALPTNLIESELFGYSGGSFTGANREGKKGLLESAHKGTLFLDEIGEMPLEIQAKLLQVLQEKTFRPIGGRELKKVDVRIVAATNRDLSMMVKQGTFRKDLYYRLNVIPILIPPLRERTEDILPLIYHYLQHFNEKYGRNVKLAPSTLQMFVGYPWEGNNREIENVIERIVITADDIVTIEDLPIAMQESTVEQSGQSLYKMLEEVERNIILKAYKTYGSSYKVAEFLKISQSAATRKIKKLIEEEENIG | failed
5 | MYDLRPRTLTFLEVALPPTTDTTPIFSLLFFSQCSVFKGFSRSTSSAEAGGVLGGSTRVLICSVSSLVKIEDCKVKIFDKLSEKAEKVLEIGIGTGPNMRYYAARNSNVTLYGLDPNPKMKKYARKSATKAGLKPKNFRFKQGVGEAIPLKDNSVDAVVATLVLCSVSDVTQTLKEIKRVLRQGGVFIFLEHVAAKDGSFFKRLQKLLDPLQQRLADGCHLARNTRECILEAGFSGGVEVQTFSMYSFPWMTRPHIYGLAYN | not failed
6 | MYDHILLASDGTEASTNAESHAISLAAEHGAALHVLYVVDEDVYTAYSGDEYVDESEGPEHGLEETGQETLARIQADAEASGVDATTTLKHGRPAESVIETADEADVDLLVLGTKRRPAEYRSLLGSITDKVLRLSERPAVVVKTEVEE | failed
7 | EAHRVLFGFVPETKEELQVMPGNIVFVLKKGNDNWATVMFNGQKGLVPCNYLEPV | not failed
8 | MKSITTDELKNKLLESKPVQIVDVRTDEETAMGYIPNAKLIPMDTIPDNLNSFNKNEIYYIVCAGGVRSAKVVEYLEANGIDAVNVEGGMHAWGDEGLEIKSI | failed
9 | MNMAHTTTSMEIFGSPEQVWQLIGGFNSLPDWLPYIPSSKLTEGGRVRHLANPDGDTIIERLEVFNDKERYYTYSIMNAPFPVTNYLSTIQVKEGTESNTSLVEWSGTFTPVEVSDEEAINLFHGIYSDGLKALQQAFLDLEHHHHHH | not failed
10 | LFTHRPIHTHTVTFSGGGENSAMYASIGFYDDRGWTLADHVKRITANIKNSFYWNEDKIKATISAQGNLRNQNSPGTIPQRRNTVIGTFERDFDINPFSYALSTSRTLRPHNADGKREFYRNNWAPFNILNEYENNYLKTEVLDLKLQGELSYRLNDHIEVKGLAMVRHAVTKSSHFIAEASNVVQAFRANETPYVARENIYLLKNKDDPMQLPGVALTHGGIFNKTETSLRSYLGRLALDYNRQLSEHNIRAFGFTEIRYADRSMNPFQGYGIQYDRGNQVFSNPLIFEKLANEGDTYFSLTERYERGVTLSGSATYGYAEKYIFNGVFNYEGANTAGKYSRSRWLPTWNIGAKWNLDQEKFMRKHTTISRLALRTSYGLTAKMNEQAVNSTTVFKHVMVNRTLLKDRENALRILHLENRDLTWEKMYELNFGLELGLFGNRISATFDVYQRNSFDLIDLIRTSGVGGQYYKYANFGDMRTRGVELAIQTQNILTDKFSWSTTVT | failed
11 | MGLFQSDKAAEEIDPPQDVTFVNDEAGANSNTTAAKKTESEKSDTAKADQASSTVMRELYLIDKNGYVVAQTLPLPKSESTAKQALEYLVQGGPVSEILPNGFRAVLPADTTVNVDIKKDGTAIADFSNEFKNYKKEDEQKIVQSVTWTLTQFSSIDKVKLRINGHELKEMPVGGTPISDDLSRKDGINLETAGVNDLTATHPLTVYYLAENEDSEYYVPVTKRIDNSEKDDITAAINELAKGPSKVSGLLTDFSEDVKLVSKPKIKDGRVTLDFNQSIFGSADEKTKMISSEVLNSIVLTLTEQPDVKSVSVKVNGKSELVNEKGEKLTEPVSRPSQVNTGSFLEHHHHHH | not failed
12 | MKETTKKIVSKRLTKVVALVLMCVICTSGVITVTALSRDVTVLDGDKMYGLTTLNANPDAVLDRLGIEVSPEDSIEFDEAAAKITIKRAFDVTVEVDGKAKTVTMTEGTVADALEASKVDLKEGDQVVPFAATSLVPDMEIKVARGVEVTVEADGKSVKVKVPVTATVEAAVAAADFTVGKDDVLSAEKTDTVSAGMTIKLDRVSYRETETTQEIPYESTQEETGELDLGDTQVKTAGENGARTIVTREKLVNGQVVETEEISSTVVKEPVNEVLLVGTREVETAPSYGAASTSGGVLVDHDGNQIAYTAVYTGSATAYTAPAGSFTATGRPAQYGNVAVNPDLIPYGSRLYICSPDGSYVYGYAVAADTGGALMSGSALVDVYFDTLSECYGFGRRTLSVYILA | failed
13 | DSFKNLENKYDGKIGIYTLNTDDKTNIKYNESYHFPICSVFKFLLVGAILDYDMHNQGFLDKKIPINQDDIGKLGYAPITAKNVGKTLTISQLNYAAILSDSPASNILVRELGGLQNLNKFIKKLGDNDTIITADEPEINYTQPHSNINKTTPKAITKDIYKLAFGNILDKKHKDIFIKYLQDNNTGANRIAFSMPKDWIIGDKTGTCGQYAATNDVAIIWPKNQQPIALGILYTNPNDKNAPSNEEIIQQAAKLIANDLTNTYK | not failed
14 | MLPASNGSVSLPQPKEWENGCRLGFIHMAAKGIVQVISAQVLSGTTLTLGWLGYVPLLIWAVSRVRWVELFTDRRRQHLLFGTVFCLFALWLVRRDFDTGVSYHFIGMTAVTLLLDWPLAVLGGFMAQLGLLALGRQDLAALGVNGLMLIGLPVLITEVCAIVVERAQPRNLFVYIFCSGFFPAALTVLVCVPAALGVLWLDGRFALPEWLSDFVGYLWLMMFPEAFINGMVISALVVFCPEWLETFNRTRYLQAPWKEDER | failed
15 | MNGYIINIRYQQMGRVIYMFFFAIFGIQDKNKHIGNCNNIVCPSCGRLSMYEVYKYYKYFHIFFLPIFKWDVRYIVKTSCCGCLYELDPLVGKEFEKNPSTEIREENLQRIDRYSPFKYCSNCRTEVPVEYSYCPYCGERLLEHHHHHH | failed
16 | MYYVYVAGYILLAAAMQLFTGNFPVSFLAFPLNIIFAAIWLFLLWILYKEYNNLRITRFLGSSKASVLSISLFIGGCLIIGLFPQLSEPEAEMRKGISASLGCYNFMTSWIFISILLLLLSNLAMITIHACRHRKQARWRFILNHTGLWLALFAGFLGSSDTQTLRIPLYKGEPKHEAFDMNGASYYLDYDMELNSFAVEYYPNGRPSRFSANVRLGNENVLLEVNHPYSYRLGEDVYLTGYDVTKGNESNYCILQVVKQPWKYVMVAGILMMLAGAVLLFINGAKAYDKLG | failed
17 | MQWANLALFLTEAIVYFSVMTAFLHYRHILGIGVFLTALGVMHFLETYLAAVFYVQLPFGVASPGSSILFAGKLMMILMLYMREDAAVVRQPIYGLFLGNILTVIMAQIIRFHQTVAIVPGQSVSTGFLDEMGILMVWGTSLLYIDAIAIILFYEKLGRYLQRHIVLRFAICGVVILSFDQAGFYGALRLLFNAPVDVFYDGWKAKMAAVGIYSLLFATYLWLTAAKGRFLTRRSVADVFNDLTFRERYEELLSRSGRDMLTGVSDRARMELDAPSLVVECLEKRRPVSVLIVDIDHFKTVNDTFGHLQGDEILREFAAVLKRAVQPLGHLYRFGGEEFVALLPAMTHETALAFSASLRVAVLAELQRPDGSPLTVSIGVATAFEDGQLFRALLSEADAWLYAAKNNGRDQVHGRHGMWVG | failed
18 | MMRLLGILFILLSSSFNVYAQLPQVSAGSIERLTSFPSAFVPPRNIDIWLPAGYDKQQRYAVLYMHDGQMLFDATTSWNKQEWQIDEVASRLIKAGKTQPFIVVGIDNAGENRHSEYFPQQPFENLSQAQQTALYQLQRTKNQALFSQQVYSDRYLKFLVTELKPYIDSHYSVYTDAAHTFVMGSSMGGLISLYAISEYPHIFGGAACLSTHWPGTFEQQNNPIPPAFFNYMQQKLPDPSTHKLYFDHGTATLDAWYPQLQAKADKIIEAKGYTSQNWQSLIFEGAEHSEHAWAARLDIPLIFLLA | failed
19 | MDNLFYYMIIQNDRIQPIIVRQPQTVIIHSQPKLPITLDLPPQNIILKNEDPQPIIVRQSNPNIIIEKSQNDFYNHPNFHIGLHDKVNSMSDINNTNIKEQPIKDNMIEDMQNINNADTQFYYNNQNVINENNVLPTHYSYLNNGVFNKEHNYDPYNFTLYSNK | failed
20 | MNPSDRKDAVNPFGKLTFLVVDDFENFRLSMRQMLRSCGADKIELVAHATPAIQYCTYNHVDVVLCDYNLGEGKNGQHVLEELRHKKLLKRSSLFLMVTAETSKEMVMGAREYQPDGYLTKPINRAMLEQRLGSLIKQRNALLPITREIDRENYPEAISLCLQTLPKQPRYKTWLMKTLGELYFMVGDLAHAQKVYDDVLNQRELSWARLGRCKVLLANRNFDQAVDGLKALIEKHPDYMEAYDLLAEGLQKQGRSAQAQQVLEKAAEHSPNALLRQKHLAELAGANQDIDTASQAWRQTVSLGTYSIHDNAEHYLSLAQSLSDLSEGDLDEEGAARSSEALSVLTKMEKRFDNDETIGLKSRIVQCRLHAGQGRHREAEKILTAVSSELESLEELPADMGLDFAKTLFRMGREDQAKRILGDLASRFDNDPDTLQKIENLLDEPVGFRQKLEARSMNRDGIKAFEAGDLDAAVEAFNKALAIVPDHAALNLNLVQVLMKQYDQNPEPALLAACQQRLDHLNKLPEQHRQHRRYLALTRKLKGLTA | failed
